Columns and labels:
[1] = molecular target: ExsA-L117R (Pseudomonas aeruginosa) (UniProt P26993)
[2] = molecular target: the molecule itself; assay: crystal structure; hanging-drop vapor diffusion at 25°C; 1.6M MgSO4, 0.1M MES pH 6.5, 0.1M EGTA; dimers A/A' and B/B'' made by crystallographic two-fold axes

In the case of “ExsA-L117R (from UniProt P26993 1-278) (natural protein)”, the activation of transcription in vitro at 16, 32 and 64 nM protein, against wild-type ExsA [1] is reported as 10 fold.

B1: ExsA amino-terminal domain (ExsA-NTD), amino acids 2-178 (domain or fragment)
chain: QGAKSLGRKQITSCHWNIPTFEYRVNKEEGVYVLLEGELTVQDIDSTFCLAPGELLFVRRGSYVVSTKGKDSRILWIPLSAQFLQGFVQRFGALLSEVERCDEPVPGIIAFAATPLLAGCVKGLKELLVHEHPPMLACLKIEELLMLFAFSPQGPLLMSVLRQLSNRHVERLQLFME
notes: thermolysin product, amino acids 2-178 by LC-MS; A selenomethionine-substituted sample was also made (E. coli BL21(DE3), minimal medium), crystallised under identical conditions and used for phasing; Residues 2-10 and 166-178 (chain A) and 2-9 and 167-178 (chain B) gave no density; also called regulatory domain of ExsA; ExsA N-terminal domain protein; source: E. coli BL21(DE3) CodonPlus RIL, …
B1: binds [2].

— paper PMC4552939, “Structural Analysis of the Regulatory Domain of ExsA, a Key Transcriptional Regulator of the Type Three Secretion System in Pseudomonas aeruginosa” (PLoS ONE, 2015)
